Results published in paper PMC7277757, “On the Electrochemical Detection of Alpha-Fetoprotein Using Aptamers: DNA Isothermal Amplification Strategies to Improve the Performance of Weak Aptamers”.

Tests used:
[1] = biological target: T1, alpha-fetoprotein (AFP) (Homo sapiens) (UniProt P02771); test: magnetic bead binding assay, antiF-POD, chronoamperometry; details: no amplification; 1:1 fit; 1x PBS, 25 °C, 30 min, 1300 rpm; 60 µg AFP-modified magnetic beads in 250 µL (effective AFP about 34 nM); washes 1x PBS 0.01% Tween 20; pH not stated
T1 sequence: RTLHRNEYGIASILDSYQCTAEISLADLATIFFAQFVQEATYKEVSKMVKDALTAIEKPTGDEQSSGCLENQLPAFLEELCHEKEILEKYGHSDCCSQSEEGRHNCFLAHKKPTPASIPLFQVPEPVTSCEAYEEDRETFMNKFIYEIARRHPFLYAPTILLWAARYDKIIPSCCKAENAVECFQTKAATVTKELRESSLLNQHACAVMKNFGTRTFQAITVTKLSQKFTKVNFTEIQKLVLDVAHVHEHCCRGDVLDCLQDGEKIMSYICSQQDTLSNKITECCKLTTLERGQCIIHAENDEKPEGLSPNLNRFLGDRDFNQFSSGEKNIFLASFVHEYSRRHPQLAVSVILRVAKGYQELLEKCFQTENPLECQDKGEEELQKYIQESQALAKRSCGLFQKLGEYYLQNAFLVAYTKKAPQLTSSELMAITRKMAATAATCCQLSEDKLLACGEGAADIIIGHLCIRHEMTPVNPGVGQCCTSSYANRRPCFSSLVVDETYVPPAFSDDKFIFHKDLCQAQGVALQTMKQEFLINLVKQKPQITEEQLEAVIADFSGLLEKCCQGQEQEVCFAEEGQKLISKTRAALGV

alpha-fetoprotein (AFP) [2] = biological target: T2, alpha-fetoprotein (AFP) (Homo sapiens, UniProt P02771 19-609); test: magnetic bead binding assay, antiF-POD, chronoamperometry; no amplification; Hill n = 1.6 ± 0.4; 1x PBS, 25 °C, 30 min, 1300 rpm; 60 µg AFP-modified magnetic beads in 250 µL (effective AFP about 34 nM); washes 1x PBS 0.01% Tween 20; pH not stated; details: protein: native; label: 5' FITC
T2 sequence: T1 sequence

alpha-fetoprotein (AFP) [3] = biological target: T2, alpha-fetoprotein (AFP); test: magnetic bead binding assay, TdT amplification, SA-POD, chronoamperometry; apparent Kd; TdT elongation after binding; Langmuir fit; 1x PBS, 25 °C, 30 min, 1300 rpm; 60 µg AFP-modified magnetic beads in 250 µL (effective AFP about 34 nM); washes 1x PBS 0.01% Tween 20; pH not stated; details: protein: native
alpha-fetoprotein (AFP) [4] = biological target: T2, alpha-fetoprotein (AFP); test: magnetic bead binding assay, RCA amplification, antiF-POD, chronoamperometry; apparent Kd; RCA after binding; Langmuir fit (abstract prints 189 nM); 1x PBS, 25 °C, 30 min, 1300 rpm; 60 µg AFP-modified magnetic beads in 250 µL (effective AFP about 34 nM); washes 1x PBS 0.01% Tween 20; pH not stated; details: protein: native

Work on “TCAGGTGCAGTTCTCGACTCGGTCTTGATGTGGGT [AFP-S-FITC]” yielded a Kd [1] of 0.713 µM.

B1: AFP-L-FITC (ssDNA)
DNA: GGCAGGAAGACAAACAAGCTTGGCGGCGGGAAGGTGTTTAAATTCCCGGGTCTGCGTGGTCTGTGGTGCTGT
With B1 the Kd (alpha-fetoprotein (AFP) [2]) was 0.526 ± 0.101 µM.

B2: AFP-L-TdT (ssDNA)
DNA: GGCAGGAAGACAAACAAGCTTGGCGGCGGGAAGGTGTTTAAATTCCCGGGTCTGCGTGGTCTGTGGTGCTGTTTTTTT
B2 was tested, and the Kd (alpha-fetoprotein (AFP) [3]) was 0.032 ± 0.011 µM.

B3: AFP-S-RCA (ssDNA)
DNA: TCAGGTGCAGTTCTCGACTCGGTCTTGATGTGGGTTTTTTTTTTTAGATAGTAAGTGCAATCT
B3 showed a Kd (alpha-fetoprotein (AFP) [4]) of 0.188 ± 0.033 µM.
